# Data taken from the supplement of paper PMC9170038.
# Test system: MS2 coat protein
# Test: apparent KD of MS2 coat protein; designed switch direction (-1 OFF switch, 1 ON switch): -1; higher = weaker reporter binding
# Procedure, shortened: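 Transcription of designed RNA switches on Illumina chips was done by stalled E. coli RNA polymerase. SNAP-549-labelled MS2 coat protein was then titrated in doubling steps from 0.7 or 1.5 nM to 3 µM, with steps of 0.8–1.5 h at the lowest and 10–20 min at the highest concentration. The per-design median over clusters of curve-fitted normalised fluorescence is reported as apparent KD.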
# [1] = Eterna round: R95, input ligand: FMN 200 uM
# [2] = Eterna round: R95, input ligand: microRNA oligo, concentration not stated
# [3] = Eterna round: R95, input ligand: none
# [4] = input ligand: microRNA oligo, concentration not stated
Sequence,apparent KD of MS2 coat protein [1],apparent KD of MS2 coat protein [2],apparent KD of MS2 coat protein [3],apparent KD of MS2 coat protein (input ligand: FMN 200 uM),apparent KD of MS2 coat protein (input ligand: none),apparent KD of MS2 coat protein [4]
GGUUGGCGAGGAUAUACAUGAGGAUCACCCAUGUGAGAGAAACUAGUGAGGUCGAUUGGUAGAAGGCGCUGACG [Mat - Exclusion 3 - Mod of JL D81] (puzzle: Exclusion 3),0.0253 µM,0.204 µM,0.129 µM,–,–,–
GGUUGGCGAGGAUAUACAUGAGGAUCACCCAUGUGAGAGGAAAAAGUGAGGAAGAAAAGUAGAAGGCGCUGACG [salish99_ex3_r3_002] (puzzle: Exclusion 3),0.142 µM,0.0608 µM,0.0567 µM,–,–,–
"GGUUGGCGAGGAUAUACAUGAGGAUCACCCAUGUGGUCCUGAGAUAGAAUAGCCCUUUGUAGAAGGCGCGGGUC [salish99_ex3_r4_044] (Eterna round: R97, puzzle: Exclusion 3)",–,–,–,0.203 µM,0.166 µM,–
"GGUUGGCGAGGAUAUACAUGAGGAUCACCCAUGUGGUCCUGUGGCUGAUCUAGCCUAUGUAGAAGGCGCAAAUC [salish99_ex3_r4_013] (Eterna round: R97, puzzle: Exclusion 3)",–,–,–,0.311 µM,0.139 µM,–
"GUAAACGCAGAGGAUAUAUCAGAUCAAAGCUGCAUAGAAGGCUGCACAUGAGGAUCACCCAUGUGGUCUUUAAG [Mat - Exclusion 6 - JL Mod - D4] (Eterna round: R97, puzzle: Exclusion 6)",–,–,–,0.128 µM,0.0184 µM,–
"GUAAGGCAUCUAGGAUAUAGUAUACGGCGAACAUGAGGAUCACCCAUGUGUCCGAAUGCGGCGAGCUAGAAGGAGAAAUUGCCC [Enuszarima] (Eterna round: R96, puzzle: Exclusion NG 2)",–,–,–,0.0514 µM,0.0334 µM,0.0254 µM
"GUACUGACAGGAUAUACAUGAGGAUCACCCAUGUGCCUUAAUGCUACAAAAGUAGCGAGUAGAAGGGUCUGUAC [Omei Ex3 Model Bachelor's Dilema v12] (Eterna round: R97, puzzle: Exclusion 3)",–,–,–,0.119 µM,0.0207 µM,–
GUAGGGUCAGGAUAUACGGGCGGAGGGAUGUAUUGUAGUUGGUAGAAGGGACAUGAGGAUCACCCAUGUAAGAA [JR_Exclu4_Sub055] (puzzle: Exclusion 4),–,0.0253 µM,–,–,–,–
"GUAUAACAUGAGGAUCACCCAUGUCAGGAUAUGCGAAUUUCAUCAAAAGAUGAAAUUUGCAGAAGGGACUGUAC [Omei Ex1 A25] (Eterna round: R97, puzzle: Exclusion 1)",–,–,–,0.0739 µM,0.0676 µM,–
"GUAUAACAUGUAGGAUAUGCAUGGCAAAGCUAUGCAGAAGGACAUGAGGAUCACCCAUGUAAUAGCGUCUGCGUACAGAUGCAA [Mat - Exclusion NG 1 - Mod of JL - D92] (Eterna round: R96, puzzle: Exclusion NG 1)",–,–,–,0.165 µM,0.0339 µM,0.031 µM
"GUAUAGUGAGUCAGGAUAUUAGAGGACCAGUUUCCUAAGAAGGGACAUGAGGAUCACCCAUGUGCAUAGGACGU [Eternabot (Original) Solution 20] (Eterna round: R97, puzzle: Brourd's mod of Exclusion 4)",–,–,–,0.0207 µM,0.023 µM,–
"GUAUAUGAUGUAGGAUAUACGAGACAUGAGGAUCACCCAUGUGAGGGAAGGAGAAGGAGAAGAGAGUAGAAGGAUAGAGUGUGA [Default title] (Eterna round: R96, puzzle: Exclusion NG 2)",–,–,–,0.0693 µM,0.0806 µM,0.0457 µM
"GUAUGGUGAGGAUAUCGCCCUGCCUGCUCAAAGGCGAUGGACGAGAAGGCACAUGAGGAUCACCCAUGUCUGGG [Eternabot (L2) Solution 65] (Eterna round: R97, puzzle: Exclusion 4)",–,–,–,0.161 µM,0.539 µM,–
"GUAUGUGGUAAGGAUAUGCAUAAAACCCGCUCCGCAGAAGGUACCACAUGAGGAUCACCCAUGUGAUACCAAUA [EX6 A.16] (Eterna round: R97, puzzle: Exclusion 6)",–,–,–,0.0161 µM,0.0143 µM,–
GUAUGUUAUGAGGAUAUCGGUGAACAUACACAUCGAGAAGGCAUGACAUGAGGAUCACCCAUGUCAAGGAUGAA [Exclusion 6 - B - 18:a] (puzzle: Exclusion 6),0.0341 µM,0.0169 µM,0.0183 µM,–,–,–
"GUCACAUGGACAUAGGAUCACAUGAGGAUCACCCAUGUGACUAACAAGCUUUUUGCUCGUCUUAUGUCCAUGUGAAG [Stov1/15-A1] (Eterna round: R97, puzzle: Sensor, turn-off variant 1)",–,–,–,0.0132 µM,0.0117 µM,–
"GUCACAUGGGUGUAGAAUCACAUGAGGAUCACCCAUGUGACUAACAAGCUUUUUGCUCGUCUUAUGUCUAUGUGAAU [Stov1/17-A2] (Eterna round: R97, puzzle: Sensor, turn-off variant 1)",–,–,–,0.0233 µM,0.0372 µM,–

Sequence,apparent KD of MS2 coat protein [1],apparent KD of MS2 coat protein [2],apparent KD of MS2 coat protein [3],apparent KD of MS2 coat protein (input ligand: FMN 200 uM),apparent KD of MS2 coat protein (input ligand: none),apparent KD of MS2 coat protein [4]
GUCACUAGAGGAUAUACAAUGGUAUAUGAUCCUAGAGACAAACAUGAGGAUCACCCAUGUAGAAGGCUAGUAUU [Exclusion 2 - 4] (puzzle: Exclusion 2),–,0.0934 µM,–,–,–,–
"GUCAGACGAGGAUAUAAAUUUGAUAACAUGAGGAUCACCCAUGUGAUCGAUAGAUCAAAUUUAGAAGGUGUCUGAC [E5/7-B3] (Eterna round: R97, puzzle: Exclusion 5)",–,–,–,0.487 µM,0.501 µM,–
"GUCAGCUCGUCAGGAUAUACAUGAGGAUCACCCAUGUGAUCAAUAGCAGCUUCGGCUGCAUACAUGUAGAAGGGACGAGCUGAC [ENG2/6-B1] (Eterna round: R96, puzzle: Exclusion NG 2)",–,–,–,0.0556 µM,0.0355 µM,0.0184 µM
"GUCAGCUCGUCAGGAUAUACAUGCGUGCUUCGGCACGAAUUUAAGAUCACAUGAGGAUCACCCAUGUAGAAGGGACGAGCUGAU [ENG2/3-B2] (Eterna round: R96, puzzle: Exclusion NG 2)",–,–,–,0.819 µM,0.6 µM,0.441 µM
"GUCAGCUCGUCAGGAUAUAUAUACAUGAGGAUCACCCAUGUAAGAUCAGGCUUCGGCCAAUGUAUAUAGAAGGGACGAGCUGAU [ENG2/11-B2] (Eterna round: R96, puzzle: Exclusion NG 2)",–,–,–,0.721 µM,0.81 µM,0.458 µM
"GUCAUCACACAUGGGAUCAACAUGAGGAUCACCCAUGUUGCCAAGUUGUUUGCACGUCUUAUAAUACGUUUUUCGAG [Mod-Jxg] (Eterna round: R97, puzzle: Sensor, turn-off variant 1)",–,–,–,0.0216 µM,0.0282 µM,–
"GUCAUCUAUCAUGGGAUAAACAUGAGGAUCACCCAUGUAUACAAGUUUUUUGCUCGUCUUAUAAUAAGAUAGAUGAC [Antenna 4 - Jieux - Sensor, turn-off variant 1] (Eterna round: R97, puzzle: Sensor, turn-off variant 1)",–,–,–,0.0166 µM,0.0161 µM,–
GUCAUGUUAGGAUAUCAAACAUGUGACUUCGGUCACUGUCCUGAGAAGGAACAUGAGGAUCACCCAUGUUGGAC [Ex4-3: 57] (puzzle: Exclusion 4),–,0.0162 µM,–,–,–,–
"GUCCGACAUGAGGAUCACCCAUGUGAGGAUAUACGAUUAGCUGCUAGGUAGUUAGUAUGUAGAAGGUGCAUGAA [EX1 #74] (Eterna round: R97, puzzle: Exclusion 1)",–,–,–,0.0301 µM,0.0175 µM,–
"GUCCUCUUGACAUGAGGAUCACCCAUGUUUUAUUUGUUAACUGAGGAUAUACUCUUAUUUUUUAUGUAGAAGGCAGUUUUGUUC [JR_ExcNG3_Sub023] (Eterna round: R96, puzzle: Exclusion NG 3)",–,–,–,0.0826 µM,0.0263 µM,0.022 µM
"GUCGUGCAGCUUUGCUGUACGAGUACAUGAGGAUCACCCAUGUAGGAUAUGGUACGCUUUGCGUGCUAGAAGGAUAUGUGUAGC [salish99_ExNG3_r04_503] (Eterna round: R96, puzzle: Exclusion NG 3)",–,–,–,0.0448 µM,0.0371 µM,0.029 µM
"GUCGUGCGGCUUUGCUGUACGAGUACAUGAGGAUCACCCAUGUAGGAUAUGGUUCGUUUUGCGUGCUAGAAGGGCGUGCGUUUU [Excl-NG3-LRO16] (Eterna round: R96, puzzle: Exclusion NG 3)",–,–,–,0.0224 µM,0.0221 µM,0.0173 µM
GUCUCGUCAGGAUAUGACGCUACAUUUUCUUUUUAGAAGAGUCAGAAGGGACAUGAGGAUCACCCAUGUGAUUC [Ex4 - 3 - 3] (puzzle: Exclusion 4),–,0.31 µM,–,–,–,–
"GUGAGAUAGUUAGUGGCCGACAUGAGGAUCACCCAUGUGAGGGAAAUGUUGAGGCGAAAGCUUUUUGCUCGUCUUUA [JR_SV3TOV1_Sub037] (puzzle: Sensor v3, turn-off variant 1)",0.03 µM,0.139 µM,0.0348 µM,–,–,–
GUGCAGGUAGGAUAUCCACCGGCAAACAUGAGGAUCACCCAUGUGACGCUCCCUUGUCUUGGAGAAGGGCCGGCAU [Xetemaaren] (puzzle: Exclusion 5),–,0.0252 µM,–,–,–,–
GUGCGGUGAGGAUAUACGUAGGUGAAAAUCUGUGUGCUCCUACAUGAGGAUCACCCAUGUAGAAGGCAUGUCAC [LRO-Excl2-15] (puzzle: Exclusion 2),–,0.0147 µM,–,–,–,–
GUGGUGACAGGAUAUACAUGAGGAUCACCCAUGUGAGGAGGACGAGACAGGUGAAGGAGUAGAAGGGUCAGAGG [JR_Exclu3_Sub027] (puzzle: Exclusion 3),0.0667 µM,0.0745 µM,0.0603 µM,–,–,–
